Changes are numbered by the printed parent chain. Values belong to the binder of their own block, whether it stands above or below them.
How the values were obtained:
[1] = target: the molecule itself; assay: seeded fibril growth assay (ThT fluorescence, negative-stain EM, pelleting); sonicated fibril seeds (0.5 uM) with monomers (5 uM), with or without HSPA8 (5 uM); 30 C by the methods, 37 C for 2 h by the legend of Fig. 3c; fibrils pelleted at 12,000 g
[2] = target: T1, recombinant hHSPA8-CT (C-terminal fragment 385-647, SBD; 6xHis-Sumo) (human, UniProt P11142 385-646); assay: negative staining immunogold EM; RIP3 fibrils with HSPA8-SBD on grids; anti-HSPA8 antibody 1:100, anti-rabbit gold-conjugated antibody; details: both partners purified
T1 construct: human HSPA8 C-terminal fragment, residues 385-647 as printed; also called HSPA8-SBD; HSPA8 SBD domain; source: E. coli BL21 (DE3), purified (Ni-NTA, Superdex 200)
T1 sequence (P11142 385-646): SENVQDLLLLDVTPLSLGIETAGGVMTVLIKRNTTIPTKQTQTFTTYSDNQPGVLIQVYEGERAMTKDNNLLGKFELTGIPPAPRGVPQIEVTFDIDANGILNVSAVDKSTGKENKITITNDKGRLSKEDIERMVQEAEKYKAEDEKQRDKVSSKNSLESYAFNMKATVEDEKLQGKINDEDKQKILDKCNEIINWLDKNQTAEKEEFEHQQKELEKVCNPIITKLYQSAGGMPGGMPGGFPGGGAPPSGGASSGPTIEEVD

[3] = target: T2, GST-tagged HSPA8-SBD domain (GST-HSPA8-SBD 385-647) ( (human or mouse cDNA cloned), UniProt P11142 385-646); assay: pull-down; His pull-down on Ni-NTA; His-Sumo-RIP3(388-518)-4A as bait, GST-HSPA8-SBD as prey; mixed 1:1 (50 uM each) for 6 h at 4 C; details: both partners purified
T2 construct: The plasmid methods name only 6xHis-Sumo constructs for E. coli; the GST construct is not described there; source: E. coli, purified
T2 sequence (P11142 385-646): as above

B1: RIP1(497-582) (domain or fragment, human, UniProt Q13546 497-582, looked up)
chain: MPSLHNIPVPETNYLGNTPTMPFSSLPPTDESIKYTIYNSTGIQIGAYNYMEIGGTSSSLLDSTNTNFKEEPAAKYQAIFDNTTSL
notes: the reagents paragraph prints 498-582; two first limits printed (497 and 498); also called RIP1_((498-582)); source: recombinant, generated previously
binding result [1]: binds

B4: TRIF(677-698) (peptide, UniProt Q8IUC6 677-698, looked up)
peptide: QPLIIHHAQMVQLGLNNHMWNQ
notes: TRIF residues 677-698; source: custom-made by WuXi AppTec
binding result [1]: binds

Other lines, results leading:

binding result [2]: binds
B2: hRIP3(388-518) tagged with 6xHis-Sumo (RIP3 fibrils of Fig. 4) (domain or fragment, human, UniProt Q9Y572 388-518, looked up)
chain: SSDSMAQPPQTPETSTFRNQMPSPTSTGTPSPGPRGNQGAERQGMNWSCRTPEPNPVTGRPLVNIYNCSGVQVGDNNYLTMQQTTALPTWGLAPSGKGRGLQHPPPVGSQEGPKDPEAWSRPQGWYNHSGK
notes: human RIP3 residues 388-518; also called RIP3 amyloids; source: E. coli BL21 (DE3), purified (Ni-NTA, Superdex 200)

binding result [3]: binds
B3: His-Sumo-RIP3(388-518)-4A (domain or fragment, human, UniProt Q9Y572 388-518, looked up)
chain: B2 chain with V71A, Q72A, V73A, G74A
notes: human RIP3 residues 388-518 with the RHIM core VQVG replaced by AAAA; also called His-tagged RIP3-RHIM-4A; His-tagged RHIM-4A-containing RIP3 (388-518 aa); source: E. coli, purified

— paper PMC10624691, “HSPA8 acts as an amyloidase to suppress necroptosis by inhibiting and reversing functional amyloid formation” (Cell Research, 2023)
